In paper PMC7847540, “ClpX Is Essential and Activated by Single-Strand DNA Binding Protein in Mycobacteria” (Journal of Bacteriology, 2020):

Biological target: the molecule itself
Experiment: size-based filtration (300-kDa cutoff filter)

B1: N-terminally 6×His-tagged truncated form of ClpX (lacking the first 60 amino acids) (enzyme)
chain: not shown
notes: ClpX ATPase, M. tuberculosis, lacking the first 60 amino acids; also called hexameric ClpX
stoichiometry N: 6
